Key:
[1] = molecular target: Linker-protein G (LPG) (Streptococcus sp.); assay: QCM-D; LPG physisorbed on a silica-coated QCM-D crystal, trastuzumab injected, PBS washes between injections; 1 x PBS pH 7.4, room temperature; Kelvin-Voigt model for mass and thickness
[2] = molecular target: Recombinant protein G (PG) from Streptococcus sp. (Streptococcus sp.) (UniProt P19909); assay: QCM-D; PG covalently immobilised (APTES, glutaraldehyde) on a silica-coated QCM-D crystal, deactivated with Tris/ethanolamine, blocked with BSA; trastuzumab 1 ug/mL in 1 x PBS injected; Kelvin-Voigt model for mass and thickness
[3] = molecular target: Humanized anti-HER2 monoclonal antibody trastuzumab (human); assay: SPR

Substance	Mass Deposited for Bound Antibody [1]	Mass Deposited for Bound Antibody [2]	Thickness of Bound Antibody [2]	Half-Life t1/2 [3]	Kd [3]	koff [3]	kon [3]
Humanized anti-HER2 monoclonal antibody trastuzumab	1200 ng/cm^2	451 ng/cm^2	7.43 nm				
Recombinant protein G (PG) from Streptococcus sp. (from UniProt P19909 34-562) (natural protein)				1.4 min	4.62 nM	0.00824 s⁻¹	1.79e+06 M⁻¹ s⁻¹
